Laboratory results as given in patent US20250236667A1, “ANTIBODIES TO MUTANT CALRETICULIN AND USES THEREOF” (CENTRAL ADELAIDE LOCAL HEALTH NETWORK INC, priority 2021, published 2025).

Columns and labels:
[1] = tested on: ruxolitinib-resistant TF-1 TpoR CALR^del61 cells; assay: Cell growth in liquid culture, trypan blue exclusion; assay type: cell-based, human; conditions: 20 μg/mL, 96 hours
Description: A. Graph showing effect of ruxolitinib on megakaryocyte differentiation at 50 and 100 nM in healthy CD34+ cells (n=4). B. Effect of 4D7 on TPO-dependent megakaryocyte differentiation of healthy CD34+ cells cultured with 20 μg/mL 4D7 or IgG control (n=4). C. Total numbers of hematopoietic colonies plated in MethoCult from healthy cord blood after treatment with 4D7 or IgG. CFU-GM, colony forming unit-granulocyte macrophage: BFU-E, blast forming unit-erythroid: CFU-GEMM, colony forming unit granulocyte, erythroid, monocyte, megakaryocyte (n=3).D. CD41+megakaryocyte colonies from healthy CD34+ cells observed on collagen matrix after 4D7 treatment. Colonies were cultured in TPO, SCF. IL-9 and IL-3. E. Number of megakaryocyte colony forming units observed in MegaCult assay after treatment of healthy cord blood CD34+ cells with either IgG or 4D7 (n=3). F. Western blot showing signalling in ruxolitinib-resistant TF-1 TpoR CALR^del61 compared to ruxolitinib sensitive TF-1 TpoR CALR^del61 cells after treatment with 100 nM ruxolitinib for 16 hours or 30 minutes and blotted for phospho-STAT5, total STAT5, phospho-ERK, total ERK and actin as indicated. Ruxolitinib-sensitive cells were non-viable after 16 hours of treatment. […] Cells counted using Trypan Blue exclusion with replicate wells (n=3). […]

[2] = tested on: TF-1 TpoR CALR^del61 cells; assay: Cell cycle analysis by flow cytometry (propidium iodide); assay type: cell-based, human; conditions: 20 μg/mL, 48 hours; P=0.001
Description: Cell cycle analysis was carried out by flow cytometry. Briefly, TF-1 TpoR and TF-1 TpoR CALR^del61 cells were seeded at a concentration of ˜2×10^5 per well in triplicate under standard culture conditions, with the addition of 20 μg/mL IgG or 4D7. Cells were treated for 48 hours and were fixed by 70% (v/v) ethanol at 4° C. overnight. Fixed cells were rinsed twice with PBS and stained with 50 μg/mL propridium iodide (PI: ThermoFisher)+100 μg/mL RNAse A (QIAGEN). Cells were incubated for 30 minutes at RT in the dark and analysed on the BD FACSCantoII (BD Biosciences).

[3] = tested on: ruxolitinib-resistant TF-1 TpoR CALR^del61 cells in NSG mice; assay: Bone marrow engraftment xenograft model, ruxolitinib-resistant cells; assay type: in vivo; conditions: cells resistant to 100 nM ruxolitinib; 12.5 mg/kg twice weekly from day 7; P=0.0008
Description: All procedures were approved by the South Australian Health and Medical Research Animal Ethics Committee (Protocol SAM21-018). Bone marrow engraftment model: 4-6 week old NSG mice were x-ray irradiated with 150 cGy and 5×10^5 cells (TF-1-TpoR CALR^del61) or 5×10^4 cells (100 nM ruxolitinib resistant TF-1 TpoR CALR^del61) were intravenously injected into mice. Seven days after injection, mice were administered 12.5 mg/kg IgG or 4D7 by intraperitoneal injection twice weekly. Tail vein bleeds were taken at 3 weeks and analysed via flow cytometry to determine human leukaemia content in the peripheral blood. Leukemic cells were PI-, mCD45.1, hCD33+, zsGreen+. Mice were monitored daily and euthanized once clinical symptoms were observed. At the time of euthanasia, cardiac puncture was performed to obtain both peripheral blood and serum for analysis. Additionally, bone marrow from both femurs, spine and spleens were analysed for leukemic content as detailed above. Chloroma model: 4-6 week old NSG mice were anaesthetised by isoflurane inhalation and shaved on the left back/flank and 1×10^7 cells were injected into the mice. Cells were pre-treated with 20 μg/mL IgG or 4D7 for 1 hour prior to injection. Seven days after injection, mice were administered 12.5 mg/kg IgG or 4D7 by intraperitoneal injection twice weekly. Tumour progression was assessed through caliper measurements every 2 days. […]

[4] = tested on: TF-1 cells expressing TpoR alone (endogenous wild type CALR); assay: Cell proliferation, trypan blue exclusion; assay type: cell-based, human; conditions: in presence of TPO; 2, 10 or 20 μg/mL
Description: (§1) In brief, cells were seeded at 5×10^4/mL in standard growth media, with any necessary cytokines, and the addition of 20 μg/mL IgG or 2, 10 or 20 μg/mL 4D7. Cells were seeded in triplicate and each well was counted in triplicate every 24 hours for 5 days using trypan blue exclusion.

[5] = tested on: TF-1 TpoR CALR^del52 cells; assay: Cell proliferation, trypan blue exclusion; assay type: cell-based, human; conditions: over 5 days at 2, 10 and 20 μg/mL
Description: as §1

[6] = Pharmacokinetic measurement of serum level of 4D7; assay type: in vivo, mice; conditions: 12.5 mg/kg intraperitoneal injection; 48 hours post injection
Description: A. Illustration showing bone marrow NSG engraftment model with TPO-independent TF-1 TpoR CALR^del61 cells treated with 4D7 or IgG control twice weekly, starting 7 days after engraftment via intraperitoneal injection and final measurements taken from euthanized mice. B. Pharmacokinetic measurements of serum level of 4D7 in mice after intraperitoneal injection at 1, 24, 48, 72 and 110 hours since administration. C. Percentage of human CD33+myeloid cells measured in peripheral blood at 3 weeks post-tail vein engraftment (n=5 mice per treatment). D. Kaplan-Meier survival curve of bone marrow engraftment model showing improved survival of mice treated with 4D7 compared with IgG control commencing I week after tail vein injection (n=5 mice per treatment). […]
All procedures were approved by the South Australian Health and Medical Research Animal Ethics Committee (Protocol SAM21-018). […] Tail vein bleeds were taken at 3 weeks and analysed via flow cytometry to determine human leukaemia content in the peripheral blood. […] Mice were monitored daily and euthanized once clinical symptoms were observed. […] Additionally, bone marrow from both femurs, spine and spleens were analysed for leukemic content as detailed above. […] Tumour progression was assessed through caliper measurements every 2 days. […]

B1: 4D7: rat monoclonal IgG2a antibody against the mutant CALR neoepitope; VH SEQ ID NO: 5, VL SEQ ID NO: 7 (antibody, listed as Rattus rattus, V domains shown)
VH: QVQLQQSGAELAKPGSSVKISCKASGYTFTNYDMSWIKQRPGQALEWIGAINPGNGVTDYNEKFRGKATLTVDKSSSTAFMQLSSLTPEDTAVYHCAREYRDNYGYFDYWGQGVMVTVSS
VL: DIVLTQTPVSLSVTLGDQASISCRSSQSLEYSDGYTYLDWFLQKPGQSPQLLIYEVSSRFSGVPDRFIGRGSGTDFTLKISRVEPEDLGVYYCFQATHDPFTFGSGTKLEIK
inhibitory activity on cell growth in liquid culture [1]: strong inhibitory activity | sub-Go fraction compared to IgG control [2]: significant increase | survival, hazard ratio [3]: 0.26 | inhibition of proliferation [4]: no inhibition | TPO-independent cell growth [5]: blockade of TPO-independent cell growth | serum concentration [6]: more than 100 μg/mL
